Test results as given in the supplement of paper PMC9112550, “Optimization of the antimicrobial peptide Bac7 by deep mutational scanning” (BMC Biology, 2022).

Each sequence was assayed on Escherichia coli TOP10 (assay: shrunken log2 fold change of peptide-encoding DNA abundance (4.5 h post-induction vs induction); higher = less antimicrobial activity (less host growth inhibition)). Conditions: time post-induction: 4.5 h; library: site-saturation at positions 5, 18, 19, 20.
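Note: peptides expressed intracellularly from a pBAD plasmid library in pooled LB shake-flask culture, induced with 0.3% L-arabinose, DNA abundance read by NGS, three biological replicates, DESeq2 with apeglm shrinkage.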

RRIRARPPRLPRPRPRPRAAPRP was tested. Which “shrunken log2 fold change” value did it give?
Its value is 0.826.

With RRIRARPPRLPRPRPRPRDSPRP as the sequence, how does the “shrunken log2 fold change” value read?
The value was 0.499.

Which “shrunken log2 fold change” value does the source give for RRIRARPPRLPRPRPRPRELPRP here?
The value was 0.496.

Which “shrunken log2 fold change” value does the source give for RRIRARPPRLPRPRPRPRFCPRP here?
The value was 0.527.

How did the “shrunken log2 fold change” value turn out when RRIRARPPRLPRPRPRPRFEPRP was run?
The value was 0.401.

How did the “shrunken log2 fold change” value turn out when RRIRARPPRLPRPRPRPRFGPRP was run?
Its value is 0.469.

For RRIRARPPRLPRPRPRPRFSPRP, which “shrunken log2 fold change” value is on record?
Its value is 0.308.

With RRIRARPPRLPRPRPRPRGRPRP as the sequence, how does the “shrunken log2 fold change” value read?
The value was 0.703.

RRIRARPPRLPRPRPRPRGVPRP was tested. Which “shrunken log2 fold change” value did it give?
Its value is 0.682.

For RRIRARPPRLPRPRPRPRHDPRP, which “shrunken log2 fold change” value is on record?
Its value is 0.128.

RRIRARPPRLPRPRPRPRLSPRP was tested. Which “shrunken log2 fold change” value did it give?
Its value is 0.358.

With RRIRARPPRLPRPRPRPRMNPRP as the sequence, how does the “shrunken log2 fold change” value read?
The value was 0.183.

With RRIRARPPRLPRPRPRPRNGPRP as the sequence, how does the “shrunken log2 fold change” value read?
Its value is 0.566.

How did the “shrunken log2 fold change” value turn out when RRIRARPPRLPRPRPRPRPCPRP was run?
The value was 0.426.

RRIRARPPRLPRPRPRPRPRPRP was tested. Which “shrunken log2 fold change” value did it give?
Its value is 1.99.

With RRIRARPPRLPRPRPRPRQCPRP as the sequence, how does the “shrunken log2 fold change” value read?
The value was 0.353.

How did the “shrunken log2 fold change” value turn out when RRIRARPPRLPRPRPRPRSFPRP was run?
The value was 0.202.

With RRIRARPPRLPRPRPRPRSTPRP as the sequence, how does the “shrunken log2 fold change” value read?
Its value is 0.295.

For RRIRARPPRLPRPRPRPRTCPRP, which “shrunken log2 fold change” value is on record?
Its value is 0.181.

Which “shrunken log2 fold change” value does the source give for RRIRARPPRLPRPRPRPRWLPRP here?
The value was 0.68.

For RRIRARPPRLPRPRPRPSAFPRP, which “shrunken log2 fold change” value is on record?
The value was 0.54.

For RRIRARPPRLPRPRPRPSAKPRP, which “shrunken log2 fold change” value is on record?
Its value is 0.471.

Which “shrunken log2 fold change” value does the source give for RRIRARPPRLPRPRPRPSDDPRP here?
Its value is 0.282.

For RRIRARPPRLPRPRPRPSDGPRP, which “shrunken log2 fold change” value is on record?
The value was 0.0321.

With RRIRARPPRLPRPRPRPSDVPRP as the sequence, how does the “shrunken log2 fold change” value read?
Its value is 0.162.

How did the “shrunken log2 fold change” value turn out when RRIRARPPRLPRPRPRPSELPRP was run?
Its value is 0.22.

Which “shrunken log2 fold change” value does the source give for RRIRARPPRLPRPRPRPSEWPRP here?
The value was 0.0632.

RRIRARPPRLPRPRPRPSFCPRP was tested. Which “shrunken log2 fold change” value did it give?
The value was 0.167.

Which “shrunken log2 fold change” value does the source give for RRIRARPPRLPRPRPRPSFLPRP here?
The value was -0.338.

Which “shrunken log2 fold change” value does the source give for RRIRARPPRLPRPRPRPSGQPRP here?
The value was 0.251.

Which “shrunken log2 fold change” value does the source give for RRIRARPPRLPRPRPRPSGWPRP here?
Its value is 0.861.

How did the “shrunken log2 fold change” value turn out when RRIRARPPRLPRPRPRPSHMPRP was run?
The value was -0.184.

Which “shrunken log2 fold change” value does the source give for RRIRARPPRLPRPRPRPSHVPRP here?
Its value is -0.306.

Which “shrunken log2 fold change” value does the source give for RRIRARPPRLPRPRPRPSKEPRP here?
The value was 0.103.

With RRIRARPPRLPRPRPRPSKIPRP as the sequence, how does the “shrunken log2 fold change” value read?
Its value is -0.265.

Which “shrunken log2 fold change” value does the source give for RRIRARPPRLPRPRPRPSLFPRP here?
Its value is 0.349.

For RRIRARPPRLPRPRPRPSMYPRP, which “shrunken log2 fold change” value is on record?
Its value is 0.0294.

With RRIRARPPRLPRPRPRPSNNPRP as the sequence, how does the “shrunken log2 fold change” value read?
The value was -0.376.

Which “shrunken log2 fold change” value does the source give for RRIRARPPRLPRPRPRPSNWPRP here?
The value was 0.253.

Which “shrunken log2 fold change” value does the source give for RRIRARPPRLPRPRPRPSPPPRP here?
Its value is 0.67.

How did the “shrunken log2 fold change” value turn out when RRIRARPPRLPRPRPRPSRWPRP was run?
Its value is 0.388.

For RRIRARPPRLPRPRPRPSSHPRP, which “shrunken log2 fold change” value is on record?
The value was -0.471.

For RRIRARPPRLPRPRPRPSTEPRP, which “shrunken log2 fold change” value is on record?
The value was 0.396.

RRIRARPPRLPRPRPRPSVMPRP was tested. Which “shrunken log2 fold change” value did it give?
The value was 0.00738.

With RRIRARPPRLPRPRPRPTDTPRP as the sequence, how does the “shrunken log2 fold change” value read?
The value was 0.535.

Which “shrunken log2 fold change” value does the source give for RRIRARPPRLPRPRPRPTEVPRP here?
Its value is 0.173.

How did the “shrunken log2 fold change” value turn out when RRIRARPPRLPRPRPRPTGGPRP was run?
The value was 0.836.

Which “shrunken log2 fold change” value does the source give for RRIRARPPRLPRPRPRPTGHPRP here?
The value was -0.132.

With RRIRARPPRLPRPRPRPTGNPRP as the sequence, how does the “shrunken log2 fold change” value read?
Its value is 0.186.

RRIRARPPRLPRPRPRPTHWPRP was tested. Which “shrunken log2 fold change” value did it give?
The value was 0.863.

Which “shrunken log2 fold change” value does the source give for RRIRARPPRLPRPRPRPTIVPRP here?
Its value is -0.152.

For RRIRARPPRLPRPRPRPTLEPRP, which “shrunken log2 fold change” value is on record?
The value was 0.388.

For RRIRARPPRLPRPRPRPTLFPRP, which “shrunken log2 fold change” value is on record?
Its value is 0.663.

How did the “shrunken log2 fold change” value turn out when RRIRARPPRLPRPRPRPTLYPRP was run?
Its value is -0.034.

RRIRARPPRLPRPRPRPTMEPRP was tested. Which “shrunken log2 fold change” value did it give?
Its value is 0.564.

For RRIRARPPRLPRPRPRPTMYPRP, which “shrunken log2 fold change” value is on record?
The value was -0.154.

For RRIRARPPRLPRPRPRPTNAPRP, which “shrunken log2 fold change” value is on record?
Its value is 0.434.

With RRIRARPPRLPRPRPRPTNSPRP as the sequence, how does the “shrunken log2 fold change” value read?
Its value is 0.165.

Which “shrunken log2 fold change” value does the source give for RRIRARPPRLPRPRPRPTQEPRP here?
Its value is 0.0329.

How did the “shrunken log2 fold change” value turn out when RRIRARPPRLPRPRPRPTSKPRP was run?
Its value is 0.236.

Which “shrunken log2 fold change” value does the source give for RRIRARPPRLPRPRPRPTTMPRP here?
The value was 0.156.

With RRIRARPPRLPRPRPRPTYNPRP as the sequence, how does the “shrunken log2 fold change” value read?
The value was -0.121.

Which “shrunken log2 fold change” value does the source give for RRIRARPPRLPRPRPRPTYRPRP here?
Its value is 0.0376.

How did the “shrunken log2 fold change” value turn out when RRIRARPPRLPRPRPRPVANPRP was run?
Its value is 0.238.

How did the “shrunken log2 fold change” value turn out when RRIRARPPRLPRPRPRPVCTPRP was run?
The value was 0.434.

RRIRARPPRLPRPRPRPVCVPRP was tested. Which “shrunken log2 fold change” value did it give?
The value was 0.579.

How did the “shrunken log2 fold change” value turn out when RRIRARPPRLPRPRPRPVEKPRP was run?
Its value is 0.347.

With RRIRARPPRLPRPRPRPVFEPRP as the sequence, how does the “shrunken log2 fold change” value read?
Its value is 0.41.

Which “shrunken log2 fold change” value does the source give for RRIRARPPRLPRPRPRPVFYPRP here?
Its value is -0.0366.

With RRIRARPPRLPRPRPRPVGHPRP as the sequence, how does the “shrunken log2 fold change” value read?
The value was 0.189.

With RRIRARPPRLPRPRPRPVGPPRP as the sequence, how does the “shrunken log2 fold change” value read?
The value was 0.124.

With RRIRARPPRLPRPRPRPVHNPRP as the sequence, how does the “shrunken log2 fold change” value read?
The value was 0.11.

RRIRARPPRLPRPRPRPVHRPRP was tested. Which “shrunken log2 fold change” value did it give?
Its value is -0.0852.

RRIRARPPRLPRPRPRPVKKPRP was tested. Which “shrunken log2 fold change” value did it give?
Its value is 0.147.

With RRIRARPPRLPRPRPRPVKMPRP as the sequence, how does the “shrunken log2 fold change” value read?
The value was 0.163.
